Assay results as given in FireProtDB (doi:10.1021/bi972394l).
Several values for one entry are separate records, joined by “and”; a condition that tells them apart may be missing. Equal values may be shown once.

B1: Superoxide dismutase [Mn], mitochondrial, P04179 (parent)
chain: MLSRAVCGTSRQLAPVLGYLGSRQKHSLPDLPYDYGALEPHINAQIMQLHHSKHHAAYVNNLNVTEEKYQEALAKGDVTAQIALQPALKFNGGGHINHSIFWTNLSPNGGGEPKGELLEAIKRDFGSFDKFKEKLTAASVGVQGSGWGWLGFNKERGHLQIAACPNQDPLQGTTGLIPLLGIDVWEHAYYLQYKNVRPDYLKAIWNVINWENVTERYMACKK

Variants of: B1
Conditions: Homo sapiens; pH 7.8; 88.9 °C; Thermal; DSC; potassium phosphate 2 mM; transition: 2; reversible: Yes; structure 1N0J; whole UniProt chain shown

Row | Variant | ddG of mutation (higher = less stable) [kcal/mol]
1 | Y58F | -3.1

Same assay, conditions: Homo sapiens; pH 7.8; Thermal; DSC; potassium phosphate 2 mM; transition: 2; reversible: Yes; structure 1N0J; whole UniProt chain shown

Row | Variant | unfolding enthalpy (calorimetric)
2 | Y58F | 351 kcal/mol and 197 kcal/mol
